Laboratory results published in patent US20080206220A1, “2031 Oxidoreductase” (F2G LTD, priority 2004, published 2008).

Assays:
O=C1C=CCCC1 = test: purified protein, by the assay type; conditions: other: recombinant 2031 OR, 100 mM potassium phosphate buffer pH7.0; pH 7.0
Description: Assay plates: Compounds to be tested were dissolved in 100% DMSO (polypropylene vessels), diluted in water and loaded into 384 square well polystyrene plates (10 μl/well). The final DMSO concentration in all assay wells was 5% v/v.
βNADPH (tetrasodium salt)/2-cyclohexen-1-one reagent; Solutions of NADPH (1.2917 mM in 100 mM potassium phosphate buffer, pH7.0) and 2-cyclohexen-1-one (10 mM in 100 mM potassium phosphate buffer, pH7.0) were prepared on the day of the assay and combined in a ratio of 1 part of 2-cyclohexen-1-one solution to 9 parts NADPH solution. Final assay well concentrations for NADPH and 2-cyclohexen-1-one were 465 μM and 400 μM respectively.
For the iscreen, protein was typically diluted to 5 to 11.25 μg/ml in 100 mM potassium phosphate buffer, pH7.0.
Stop reagent: 0.4 M NaOH in water.
To give an increased signal, the screen was carried out using 2-cyclohexen-1-one at 4 times Km. […]
Assays were carried out using Tecan Freedom, Tecan TeMo and PerkinElmer Minitrak robots together with a ThermoLabsystems multidrop 384 and a Tecan Safire automated plate reader. […] Plates were read at 340 nm on a Tecan Safire plate reader and data processed using ‘in-house’ created Excel spreadsheets to convert raw data into percent inhibition data. […]

Recombinant 2031 OR = test: Oxidoreductase assay: NADPH oxidation monitored at 340 nm, 96-well; type: biochemical, Aspergillus fumigatus; conditions: 500 μM substrate, 1 μg/200 μL 2031 OR, 120 μM NADPH
Description: The assay for 2031 OR is based on methods described by Abramovitz & Massey (1976, J. Biol. Chem. 251: 5321-5326) and Stott et al. (1993, J. Biol. Chem. 268: 6097-6106) and is based upon the ability of this enzyme to oxidise the pyridine nucleotides NADH and/or NADPH. […] Conversion of NAD(P)H to NAD(P)^+ can therefore be monitored spectrophotometrically at a wavelength of 340 nm. A similar assay can be employed for all oxidoreductases that use NADH or NADPH as a cofactor.
Assays were carried out in 96-well plates. To each well was added the following; Recombinant 2031 OR (10-1000 ng); 40 μl of 125-2500 μM NADPH; 1 μL 100 mM cyclohexeneone or other substrate, and the volume made up to 200 μL with 0.1 M potassium phosphate pH 7.0. Samples were incubated at room temperature and absorbance measurements were taken at 340 nm every 30 seconds for 10 min. The change in absorbance was expressed as nmoles NADPH oxidised, using the molar extinction coefficient of NADPH and NADH at 340 nm of 6270 (i.e., a 1M solution has an optical density of 6270 at this wavelength).
This is illustrated in FIG. 5. Final concentrations in the assay were as follows: 500 μM substrate, 1 μg/200 μL 2031 OR, 120 μM NADPH.

Row | Compound | Km (O=C1C=CCCC1) | Reduction of substrates by recombinant 2031 OR (substrate comparison, FIG. 5) (Recombinant 2031 OR)
1 | 2031 OR enzyme (Aspergillus fumigatus Af293) | 100 µM | 
2 | O=C1C=CCCC1 [2-cyclohexen-1-one] |  | better substrate than menadione, duroquinone or N-ethylmaleimide
